We go through three molecules from patent CN1420129A (ZHONGXIN GUOJIAN PHARMACEUTICA, dated 2003).

What all share (test): cell-based or functional assay
Test [1] has as its target CD20 (on CD20+ B lymphocytes / human B lymphoma cell line DHL-4) (human) (UniProt P11836).
The target is the same in test [2]. The source holds these as a separate data set.
Test [3] deals with T1, CD20 (on CD20+ B lymphocytes / human B lymphoma cell line DHL-4) (human, UniProt P11836 1-297).
T1 sequence (looked up): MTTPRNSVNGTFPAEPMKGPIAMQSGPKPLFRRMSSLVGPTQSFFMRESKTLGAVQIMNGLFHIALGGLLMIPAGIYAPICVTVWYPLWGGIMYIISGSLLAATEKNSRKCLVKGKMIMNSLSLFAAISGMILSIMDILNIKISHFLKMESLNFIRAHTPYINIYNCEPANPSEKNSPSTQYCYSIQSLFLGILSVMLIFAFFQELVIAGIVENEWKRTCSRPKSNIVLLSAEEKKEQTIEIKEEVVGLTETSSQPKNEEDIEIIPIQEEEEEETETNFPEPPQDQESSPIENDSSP

Read-outs that look alike come from different tables or passages of the source.

In test [1], Rituximab (antibody) had a 存活细胞% (DHL-4 CD20+ cells, cell count and MTT, day 5-7) at 1 μg/ml (% surviving cells) of 50.3; a 存活细胞% (DHL-4 CD20+ cells, cell count and MTT, day 5-7) at 10 μg/ml (% surviving cells) of 12.6; a 存活细胞% (DHL-4 CD20+ cells, cell count and MTT, day 5-7) at 100 μg/ml (% surviving cells) of 29.4. Further, in test [2], the 存活细胞% (DHL-4 CD20+ cells, cell count and MTT, day 5-7) at 1 μg/ml (% surviving cells) is 66.7; the 存活细胞% (DHL-4 CD20+ cells, cell count and MTT, day 5-7) at 10 μg/ml (% surviving cells) came to 32.1; the 存活细胞% (DHL-4 CD20+ cells, cell count and MTT, day 5-7) at 100 μg/ml (% surviving cells) was 19.4.

B1: 单克隆抗体7D3 (antibody, V domains shown)
VH: QAQLQQSGAELVRPGASVKMSCKASGYTFTRYNMHWVKQTPRQGLEWIGYIYPGNGDTNYNQKFKGKATLTVDKSSSTAYMQLSSLTSEDSAVYFCARRTYYSNSYWYFDVWGTGTTVTVSS
VL: QIVLTQSPAILSASPGEKVTMTCRASSSVSYMNWYQQKPGSSPKPWIYAPSNLASGVPARFSGSGSGTSYSLTISRVEAEDAATYYCQQWSNNPPTFGAGTKLELKR
In the case of B1, in test [3], the “存活细胞% (DHL-4 CD20+ cells, cell count and MTT, day 5-7) at 1 μg/ml” value came out at 99.6 % surviving cells; the “存活细胞% (DHL-4 CD20+ cells, cell count and MTT, day 5-7) at 10 μg/ml” value was determined as 46.5 % surviving cells; the “存活细胞% (DHL-4 CD20+ cells, cell count and MTT, day 5-7) at 100 μg/ml” value worked out at 56.7 % surviving cells.

B2: 嵌合单抗C7D3 (antibody, human IgG1, V domains shown)
VH: B1 VH
VL: B1 VL
Turning to B2, in test [3], the “存活细胞% (DHL-4 CD20+ cells, cell count and MTT, day 5-7) at 1 μg/ml” value was found to be 110 % surviving cells; the “存活细胞% (DHL-4 CD20+ cells, cell count and MTT, day 5-7) at 10 μg/ml” value was determined as 27.3 % surviving cells; the “存活细胞% (DHL-4 CD20+ cells, cell count and MTT, day 5-7) at 100 μg/ml” value amounted to 39.4 % surviving cells.
